We go through three molecules from PMC11116900, “Interaction among homeodomain transcription factors mediates ethylene biosynthesis during pear fruit ripening”.

Assay in all cases: EMSA; competed by 10x and 100x cold probe; EMSA according to a previous study (ref 35); buffer, salt, pH and temperature not given
Holding throughout (settings): protein: recombinant; tags: TF (trigger factor) fusion from pCold-TF; chain copies: 2; label: biotin
Background: A gel shift assay detects complexes by their altered migration in electrophoresis.

The target in one series is T1, PbHB.G7.2 (pear (Pyrus; species  in the …, UniProt A0A5N5HLN1 1-287).
T1 sequence: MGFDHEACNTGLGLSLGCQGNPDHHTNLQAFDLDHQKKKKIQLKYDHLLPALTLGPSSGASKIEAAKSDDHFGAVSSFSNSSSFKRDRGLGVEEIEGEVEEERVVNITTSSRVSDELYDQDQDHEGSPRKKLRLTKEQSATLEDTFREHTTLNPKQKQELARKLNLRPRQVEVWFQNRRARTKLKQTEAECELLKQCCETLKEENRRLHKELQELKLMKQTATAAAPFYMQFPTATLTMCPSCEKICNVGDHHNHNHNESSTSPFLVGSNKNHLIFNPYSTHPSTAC

A further series concerns the target T2, PbHB.G2.1 (pear (Pyrus; species  in the …, UniProt A0A5N5HPW9 1-368).
T2 sequence: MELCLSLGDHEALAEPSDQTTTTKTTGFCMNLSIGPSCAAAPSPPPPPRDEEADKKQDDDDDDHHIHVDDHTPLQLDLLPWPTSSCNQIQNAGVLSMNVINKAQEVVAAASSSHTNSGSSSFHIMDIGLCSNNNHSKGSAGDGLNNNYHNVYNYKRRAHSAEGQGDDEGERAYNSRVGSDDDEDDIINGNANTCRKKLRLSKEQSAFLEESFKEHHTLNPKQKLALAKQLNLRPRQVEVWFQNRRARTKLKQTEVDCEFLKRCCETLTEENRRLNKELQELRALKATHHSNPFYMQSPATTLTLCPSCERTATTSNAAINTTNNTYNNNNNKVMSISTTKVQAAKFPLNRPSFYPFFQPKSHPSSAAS

The target of another series is T3, PbHB.G1 (pear (Pyrus; species  in the …, UniProt UPI0020301D10 1-344).
T3 sequence: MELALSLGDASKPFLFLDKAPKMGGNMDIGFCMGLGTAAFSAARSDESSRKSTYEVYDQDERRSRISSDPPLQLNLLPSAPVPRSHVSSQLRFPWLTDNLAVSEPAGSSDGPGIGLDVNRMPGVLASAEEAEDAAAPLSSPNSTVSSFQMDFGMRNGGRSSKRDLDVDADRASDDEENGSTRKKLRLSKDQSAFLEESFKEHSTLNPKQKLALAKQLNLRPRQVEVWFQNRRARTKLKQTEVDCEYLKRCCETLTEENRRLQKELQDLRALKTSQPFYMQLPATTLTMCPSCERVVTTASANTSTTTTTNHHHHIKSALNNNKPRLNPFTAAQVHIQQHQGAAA

B1: PbACS1b promoter P9 probe (34 bp) (dsDNA)
DNA 1: CTTATGGGTCGGTTTTTCTACATTTGAATTTTGA
DNA 2: TCAAAATTCAAATGTAGAAAAACCGACCCATAAG
Turning to B1, in the series with PbHB.G7.2, the binding result is “binds”.

B2: PbACS1b promoter P17 probe 2 (40 bp) (dsDNA)
DNA 1: CCTCAAGGAAATAGTAATACCCTTTAGATTTGAAGTCCTA
DNA 2: TAGGACTTCAAATCTAAAGGGTATTACTATTTCCTTGAGG
For B2, the binding result with PbHB.G2.1 is listed as “binds”.

B3: PbACS1b promoter P16 probe 1 (33 bp) (dsDNA)
DNA 1: TTATATGTTGTATCTTATTTCATCGTTGATTAC
DNA 2: GTAATCAACGATGAAATAAGATACAACATATAA
As to B3, the binding result with PbHB.G1 is recorded as “binds”.
